Substitutions are numbered along the chain they refer to.
Columns and labels:
Details in all cases: remark: other sources report otherwise
[1] = biological target: T1, His-tagged SMAD4 WT (Mothers against decapentaplegic homolog 4), Q13485; experiment: AlphaScreen or HTRF; multiplexed TR-FRET, PPI read-out (Tb-D2), lysate of HEK293T cells co-expressing His-SMAD4 and Flag-SMAD3 with point-mutated 5'-FAM-SBE4 Mut dsDNA in place of the WT dsDNA
T1 chain: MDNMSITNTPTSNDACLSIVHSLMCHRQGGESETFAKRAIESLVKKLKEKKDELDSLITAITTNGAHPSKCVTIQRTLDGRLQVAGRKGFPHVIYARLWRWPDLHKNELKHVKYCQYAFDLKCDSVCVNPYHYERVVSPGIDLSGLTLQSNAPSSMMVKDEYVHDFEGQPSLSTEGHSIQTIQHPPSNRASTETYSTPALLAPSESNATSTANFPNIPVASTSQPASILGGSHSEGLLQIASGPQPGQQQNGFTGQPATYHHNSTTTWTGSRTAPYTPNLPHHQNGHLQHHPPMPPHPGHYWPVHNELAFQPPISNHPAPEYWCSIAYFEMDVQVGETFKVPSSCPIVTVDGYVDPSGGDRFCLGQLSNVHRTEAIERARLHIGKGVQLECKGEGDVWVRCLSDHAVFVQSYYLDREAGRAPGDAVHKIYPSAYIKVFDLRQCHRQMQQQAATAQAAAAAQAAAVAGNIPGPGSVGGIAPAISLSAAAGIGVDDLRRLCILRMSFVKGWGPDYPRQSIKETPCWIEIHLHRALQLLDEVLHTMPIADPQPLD

[2] = biological target: T2, His-tagged SMAD4 R361C, Q13485; experiment: AlphaScreen or HTRF; multiplexed TR-FRET, PPI read-out (Tb-D2), lysate of HEK293T cells co-expressing His-SMAD4 and Flag-SMAD3 (WT or mutated) with 5'-FAM-SBE4 WT dsDNA; anti-FLAG M2-Tb cryptate and anti-6xHis-D2 antibodies; FRET buffer 20 mM Tris-HCl pH 7.0, 50 mM NaCl, 0.01% NP-40; 4°C for 30 min
T2 chain: T1 chain with R361C

[3] = biological target: T3, His-tagged SMAD4 R361H, Q13485; experiment: as above
T3 chain: T1 chain with R361H

B1: Flag-tagged SMAD3 WT, P84022 1-425 (natural protein)
chain: MSSILPFTPPIVKRLLGWKKGEQNGQEEKWCEKAVKSLVKKLKKTGQLDELEKAITTQNVNTKCITIPRSLDGRLQVSHRKGLPHVIYCRLWRWPDLHSHHELRAMELCEFAFNMKKDEVCVNPYHYQRVETPVLPPVLVPRHTEIPAEFPPLDDYSHSIPENTNFPAGIEPQSNIPETPPPGYLSEDGETSDHQMNHSMDAGSPNLSPNPMSPAHNNLDLQPVTYCEPAFWCSISYYELNQRVGETFHASQPSMTVDGFTDPSNSERFCLGLLSNVNRNAAVELTRRHIGRGVRLYYIGGEVFAECLSDSAIFVQSPNCNQRYGWHPATVCKIPPGCNLKIFNNQEFAALLAQSVNQGFEAVYQLTRMCTIRMSFVKGWGAEYRRQTVTSTPCWIELHLNGPLQWLDKVLTQMGSPSIRCSSVS
B1 was tested, and the decrease of the PPI signal with 5'-FAM-SBE4 Mut dsDNA against WT dsDNA [1] was 15%, the reduction of the PPI signal against SMAD4 WT [2] was 75% and the reduction of the PPI signal against SMAD4 WT [3] was 75%.

Source: PMC11063955, “A multiplexed time-resolved fluorescence resonance energy transfer ultrahigh-throughput screening assay for targeting the SMAD4–SMAD3–DNA complex” (Journal of Molecular Cell Biology, 2023)
